Reference: publication doi:10.1101/2024.11.22.624870

Target: camel APN (aminopeptidase N) (camel)

“hCoV/229E-inf1 spike protein (S) (from UniProt P15423 16-1173) (natural protein)” was tested, and the pseudovirus entry, percentage of usage (min-max scaled), without hTMPRSS2 was 3%.
